Data from the DeepSol protein solubility set.

Test: soluble on expression in E. coli; label from the status in PepcDB or PDB records

| Sequence | soluble on expression in E. coli |
| --- | --- |
| GPGSMWALTCRPIQNTEALQLMERYKAHNALQSNQWLLPRHLACFAVRPLYPAQLVLPTSSVIRLPLSAVPFSSLPLSRKREVFGLYPPPCTPPGSCSLLECSGAAMRWRPASLSECFDAAFVRSDSPSSHQHLLCATDCAGSVTVAEEVTVFNAQETNNPFLVDADLVHRNLLTKEAYEHSIGSSLTTIAAQFRYTSFEWVEATAAAAVGLRVRSSAAPHLVNCVDMLRVVHISQLPYTRQQELVAEIPRMTLIKSMTISYIFYHTRWRHHKSMELMRPLLHSNIPCCDTPQAQALQPLLWIAVDLDMEFRGPVMECARHSRTQFYNSQQLEVDTCAVPSRS | soluble |
| MGSDKIHHHHHHMNAVPKDEMTPLERMAAFAAGKPYDRIPCSSFSGETACHFIGTTVSEYRHSAKLMARVETVTYKMFGHDGAGVGPGFLALAEAMGTELKYPEDNIPFVANPVLKNWDDFDKLEPADPHKDGKLPIYLEALAMIKDAIGDEVPIGSSVGGPFTTAALVRGTENFLKDLRRNPEMAHRLLQLVTNTTLNYIDAVMDMGCSVSIGDPTASGSLLSVKQFREFAKPYLSKLADRVIERTGKGPMLHICGDSTPIWSDMADTGAPTLSLDNVIDLAEAKKVVGERVCIMGNVKPIDTIMKGSHQQIEAEVKECLRKAYDSPKGFILAVGCQVPLGTTADNFMCFMNAARKYGRYPLNPDNFI | not soluble |
| MIHSNEPLPYAIEYAKSGRSTCKTCKKNIALDQLRMSMNRPSTFFDGNMDSWFHYNCFWNKMIRGRDDINISSIRGVDWLRWEDQEKLRQEIQHFKTASPPTLTPLFSTTTVILSTIKTEKSLSNRGKCGKCGQNFERGEIKAHNKGKANHFECFLQEFDKISGTVEDIPGWADYEANFKIKATGEYVEALAAKGGSTEPATPASASPTPPEAETPVLSAEGSPESSNKRPASAEIIEIDGEGNPDENDFAKKRRMKKEARLMEVQKKRMKKQSDLLWEYRQIFERMPYTDNISILRENEQDIPEGHDRTAQDVFHEKTKNDWIYRKHFRKMPGMFSYVETDYSEFVGTNNGHKKKITPGSKITPGSKTLLPKSVKEVVMSIFDVENMKSALKSFEIDVNKMPLGRLSHNQINLAFEVLNDISDLLVKLPIDASKILDFSNKFYTIIPHNFGMRVPEPIDSFHKIKEKNNMLNALLDIKFAYDQISGGDVPASTSLSIDPVDINYRKLKCIMEPLQQGCDDWNMIHQYLKNTHGATHDLKVELIDILKVNRDNESSKFKRHIGNRRLLWHGSGKMNFAGILGQGLRIAPPEAPVSGYMFGKGVYFADMFSKSFFYCRANAKEEAYLLLCDVALGNVQQLMASKNVSRQTLPAGFQSVQGVGRQCPREIGSYKNPDGYTVPLGLTYMQLQGKQNVDYHLLYNEFIVYDVDQIQLKYLVRVKMHHARHL | not soluble |
| MSERLESRLAKVPKVTPEDIGNWLAEAETESELTEELNANAVFYLALSFAYESIAADAARYFSYTDGEESVDKSMIFANYKKLSADALKKYRKYRRGKGTHQTFAKRADGR | not soluble |
| ENHEKEWRFNSRITLVRSPIMLGQQTSHGWRDLIFDVSGGGATPAKHVMQYTGVSYPLNPSMAPTATPEQISGVRLFSDGISPVREGVRL | not soluble |
| MGSDKIHHHHHHMANTPLLITLLPSSGVDLSRWLMAHYGVTYEERPHAPIFHVLALKSWGEGKDGYPLFVHADRTTKTVGCRKIAEFFDPSAPADKTLLPDPDAEPELAAQVDDIVKYSYWTIGGDVVNWSYWNFLKYKWVVWPSLTTKVPWYEKLTCLVAFRLIRFLMYKGLKLDQRVADASLKEILAGFDKFDAMLADGRPYLTGDRMTYADLATAAALGPMILAQGYHGMLPNQAKCPVFMQGIYQQLRQRPTGLFIQRMYDQHRPAQLLQI | not soluble |
| MGSDKIHHHHHHMYELYFNWKFIWKKVGLASLTTNSTTYHSEPAYRVNLLAISSKEADFFFKMRDTLTSVMTEKLEPRYFRKGAEEGKRYTVDEARFSFRNGMCYVNQKRVRKDGSITETEQSDNRCIYDMLTILAQARSFDPKEYTIGQRIQFPMATGRRVEEQTLIYRGIKKITAENDTTYRCLIFSLVEYNKKGKEKEVITFYVTDDRNHLPVRLDMHLNFGSAKAFLKSVSGYRHPQTSIVTK | not soluble |
| VGSFYGQYLSIRKTEALLRNELNALTPATVMELADKLPEKSSSLVISYIRQVLQAHESPAQIQRLLANFEIAADKDLAISKTLTKLGP | not soluble |
| GMSENKKKFDKKGAKNMDEISKTLFAPIYPIIAENIINRFGITAGTCIDIGSGPGALSIALAKQSDFSIRALDFSKHMNEIALKNIADANLNDRIQIVQGDVHNIPIEDNYADLIVSRGSVFFWEDVATAFREIYRILKSGGKTYIGGGFGNKELRDSISAEMIRKNPDWKEFNRKNISQENVERFQNVLDEIGISSYEIILGDEGFWIIISKTDQEVI | soluble |
| MPQFETHRLVKHSPDRMYDLVADVEKYPQFLPLCEALSVRSRKERDGKVLLVADMTVGYKAIRETFTTQVLLNPAERAIDVKYIDGPFRYLDNRWRFEAAENGGTTIHFFIDYEFKNRLLGAVMGSMFDRAFRMFAEAFETRADKIYTDPALEHHHHHH | soluble |
| MDNLVDIDEDGTQEKLSVNSTPYQTQECVLYGSIFAKNVPDLERRLAGLCDPGCEEFFEHEMSFSLRSSGIMDIKTDIKLRRRFRTEHRIQNYWQLKYIGVPEPDQKCPTIVRKEISSLVHSQDMMTYAKSLGLRMDYEYMTQGKLWTKGNIKILHSILTSTSRAGTYDSNSIKSVSDSALVEISISLPESAEYMPAAKSLRDFADQLMPLVNMEKVDYWKKMFPAQAAPRR | soluble |
| MSLKELYLIDALNIIFRNYHVMKNYPLLNTQGENVNAFIGFFKTLFFIIKEKNPEHLIITFDSEVPTFRKQKYPSYKATRDLPPDDLIPQIGWIKEGLLKAKIPIFEMEGYEADDLLASFAKKAAKNNYLTYIISPDKDLLQTMSEYVKILKIENNSFIEMDNEYVTKKFGVNSFQIKDYLAIVGDRSDNIPGIKGIGAKGAANLLREFKTLDGIYSNLEIINKKHRELLIKEKENAFLSYELVSLEENLKIPEIENFALKNFSEEIISLFEKHSAIALIKTYKKDILKQEKENADQKSLFKQEPTTNSLDDINTIDTENVKYRSITTKIELDDLIESLKKAKYISIDTETSSLDTYTAKLIGISISFKEFEGYYIPIEAKGKIYIEKNYIIQKFNNLFESNPKIIGQNYKFDYKILKNNGFNPIPPYFDTMIAAYLIDTNSKVSLDFLAEKYLMHKNIKYEDVIQKNDNFANISLEMATSYSSEDADITFRLFNIFTKKLKEDKLDKLMHEIEMPFNKVIIEMEEGHHHHHH | not soluble |
| METVTLSEARVYVGTYNKYNSGSLFGKWLDLSDYSDKDEFMEACRELHKDDQDPEFMFQDYENIPEALISESWLSDKFFELRDAIEKLSETQQEAFFVWCDHHNNDISEEDADDLISSFEDEYQGEYKDEEDYAYEIVEECYDLPEFAKTYFDYSAFARDLFMTDYWMDNGFVFRCA | not soluble |
| MKNTELEQLINDKLNSAAISDYAPNGLQVEGKETVQKIVTGVTASQALLDEAVRLQADAVIVHHGYFWKGESPVIRGMKRRRLKTLLANDINLYGWHLPLDAHPELGNNAQLAALLGITVKGEIEPLVPWGELSMPVPGLELASWIEARLGRKPLWCGDTGPENVQRVAWCTGGGQSFIDSAARFGVDAFITGEVSEQTIHSAREQGLHFYAAGHHATERGGIRALSEWLNENTALDVTFIDIPNPALEHHHHHH | soluble |
| MSLAYTKKKYTPKTKEQIKEETKEIMDKVLTDITKYYRSPEDMLELANFMAKFSNYSPKNMQLIRSQFENAYACANFKAFKDAGFHVNKGETAMKVFHPYVKEYVRDPRTKLAIPLGKLTEEQKKQVKNGELKVEKQTNYYLKATAFDISQTNAKPEDLPKIFPNRQFNFEINDEGHHHHHH | not soluble |
| MSLPAGPSMACQKGTSTWAKAERPRSAKGRSFRMARILLPFSATMGGSRLQWEGMAASHALKPILELLPEELPGEGYRRAQIAHWLYAKGARDFSEMTDLPKALREALAREWRLSEFSLVQAFPSQDGSVKYLFTLLDGKKTEAVYMPYENRKTVCLSTMVGCPAGCTFCATGALGFGRNLTAAEILDQLLTIAYHQGLSPREIRNVVLMGMGEPLLNLRNVLKAVRIMLHKKALALSPRRVTLSTVGIPKGIYRLAEEDLGVRLALSLHAPDDETRRKIIPTAHRYPIAEIMEAVRHYHAKTKRRVTFEYTLLKGVNDHLWQARLLAKLLKGLSAHVNLIPFNPWEGAPVVGTPRAGVLAFAEELKRLGVPTSIRWSRGQDVGAACGQLALKVPRPLTLTPLPGGAGR | soluble |
| MTHHTEVFEGGTIDIEDDTSLTINGKEISYVHDAVKNKWSSRYLPYTQYDSLLDLARAIIRDTVEFSGVKE | soluble |
| MGSIILKAFDESTEINGDSLDLGEIQLTPYKGRLTLELLKKPAHTSQEEPGLEQENLYNYTISIYNKTKQAKIKNFNIKPPYIFLNDTNIETGDVIEVTFTHKKDYTLPATIELTLDRLMNASGQAVAKENGKGMASIQSGNQRCELMVYNSDKKFIESCSMNREGKIISNPLKEGVYTFVFISSNNYLWRLNTLEQFEEIGLKEGIHFVKKEVEIKNGEIKDLGLIVVPELNEKELFFTDPDVASYAVVSENNRIGKDIVLRAKYSFRKPIESQTVKLLFRVPDQTFYVKDTLTIDGELVDSVNVSGSFIEVTTTKTEGVVRFNIRPTEAVVCYSNAYVEFKAEGRTVREPLGVVNEVVPYLTIGAPNVTSLEKVYVTGQTLPNLEVKIYDEGSLVGVTKANSTGAWNFQVSLGKDKSYSVHNLSARIEYNDQVIESETLEVIYKKSVPEIEKVTMIHSNQSLILYKNGEIVPKGVYTYVPSQSYTFIVDFVGDSAEEIENLCIVSNRNGEERKLDAKYDPQSKSWIATGSFGYNHVPGSFTVEYNLKKKRLIKEDGELNLEVLEQISTFADQFLYELKKENVMVGLLDENEIGFMLKEDTGGIAIVTIVIGDQPIEREKYEKMGYLFKEIDGKLGAVLLIKDETENKIFTSKVRLASNKTEDSVKSEDDDESSQKETPLVTKDERISMAATIIGELGNIAGSGKVVEAIDFISGIGTAVNTIAFTPANAVTDMGYVQKKLQESENISSEDKERLRDDLFLASGVYNFTVNANFIASLMDGHTRNGTMHKIIDIVIDKYDQYSLGDKLWEDIFGKNEDDRESGKSTKSGKGSSIKLPLQEQKTLVDPSGYVYETVPDNRITDATVTVYYKDENGEMILWNAEEFGQKNPLLTDENGFYAWDVPEGMWQVKVEKEGYETAYSEILPVPPVQTNVNIPLVSYEPPKVGHIYAYPEYIEIAFSKYVKHATLDSESIQLKQGENKVNIKIVYEDEEGNYSKKIKLIPAEKTSFEGKYTLNISKSITSYAGVAMQKAEIRDIEIVAEPKSIEILDKVEIELRKTVAIEIRVLPEEAAKGKKIIVTSGMEEIVSAEDVLLDERGRGKLKLKGNLPGTVDIDLRLEGSAVEKKIQATVKFPEDNGEIIEPPVVLNGDLNRNGIVNDEDYILLKNYLLRGNKLVIDLNVADVNKDGKVNSTDCLFLKKYILGLITI | not soluble |
| MESYLTVIEQNGQLLVDSREVAEMVGKRHTDLLRSIDGYVAILLNAKLRSVEFFLESTYKDATGRSLKHFHLTRKGCDMVANKMTGAKGVLFTAQYVSKFEEMEKALKARPSLIDTYLDMNEDERAIAYFTERKAKRELQEQLTLAEPKVEKYDRFLNTDGLMKIGQVAKAIGIKGMGQNNLFRFLRENKVLIDGTNKNAPYQKYVERGFFQVKTQETSVGIKTITLVTPKGADFIVDLLKKHGHKREIAS | not soluble |
